Reference: patent publication US20120172293A1 (Takeda / Millennium, published 2012)
Non-standard residues stand in square brackets, D forms with d. No end group written: not given here. *: point of attachment. Morpholinocarbonyl = O=C(N1CCOCC1)*; Amidino = amidino group, N=C(N)*; hArg = N=C(N)NCCCC[C@H](N)C(=O)O; tBuAla = CC(C)(C)C[C@H](N)C(=O)O; Cha = N[C@@H](CC1CCCCC1)C(=O)O; 4Amb = NCc1ccc(C(=O)O)cc1; Orn = NCCC[C@H](N)C(=O)O; Aib = CC(C)(N)C(=O)O; Carbamoyl = NC(=O)*

T1: human Y2 receptor (human, UniProt P49146 1-381)
T1 sequence (looked up): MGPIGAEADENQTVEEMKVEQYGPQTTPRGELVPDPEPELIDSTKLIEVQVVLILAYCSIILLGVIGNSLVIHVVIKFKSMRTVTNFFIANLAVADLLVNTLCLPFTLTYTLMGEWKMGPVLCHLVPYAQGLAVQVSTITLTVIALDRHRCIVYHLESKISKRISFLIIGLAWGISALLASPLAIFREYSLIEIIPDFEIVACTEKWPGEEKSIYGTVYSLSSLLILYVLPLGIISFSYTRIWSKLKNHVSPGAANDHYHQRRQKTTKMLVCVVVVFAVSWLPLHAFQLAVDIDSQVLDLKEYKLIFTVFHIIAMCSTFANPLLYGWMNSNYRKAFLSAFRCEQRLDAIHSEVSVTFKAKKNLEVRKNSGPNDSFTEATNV


Assays:
human Y2 receptor [1] = biological target: T1, human Y2 receptor; experiment: cell-based or functional assay
human Y2 receptor [2] = biological target: T1, human Y2 receptor; experiment: RBA: [125I]-PYY displacement, hY2R/CHO membranes
Method: After incubation at room temperature for 60 minutes, the mixture was filtered through the cell harvester FilterMate (PerkinElmer) using UniFilter-96 GF/C treated with polyethylenimine (PEI) solution (20 mM Tris, 0.3% PEI, pH 7.4), and the filter was washed 3 times with a filtering buffer (50 mM Tris, 5 mM MgCl₂, 150 mM NaCl, 0.03% NaN₃, 0.05% CHAPS, pH 7.4). Thereafter, UniFilter-96 GF/C was dried in a mechanical drier for 1 hour, 15 μl of the liquid scintillator MicroScint O (PerkinElmer) was added to each well, and a measurement was taken using TopCount (PerkinElmer). The data obtained were analyzed using Prism to calculate the IC₅₀ value.

GBA EC50 Ratio (vs PYY(3-36)), [35S]GTPγS (human Y2 receptor [1]) [ratio] | IC50 Ratio (vs PYY(3-36)) (human Y2 receptor [2]) [ratio] | Binder
0.69 | 0.43 | Amidino-S[dP]RH[Cha][tBuAla]NK[Aib]TRQR[Cha]-NH2 (SMILES C[C@@H](O)[C@H](NC(=O)C(C)(C)NC(=O)[C@H](CCCCN)NC(=O)[C@H](CC(N)=O)NC(=O)[C@H](CC(C)(C)C)NC(=O)[C@H](CC1CCCCC1)NC(=O)[C@H](Cc1c[nH]cn1)NC(=O)[C@H](CCCNC(=N)N)NC(=O)[C@H]1CCCN1C(=O)[C@H](CO)NC(=N)N)C(=O)N[C@@H](CCCNC(=N)N)C(=O)N[C@@H](CCC(N)=O)C(=O)N[C@@H](CCCNC(=N)N)C(=O)N[C@@H](CC1CCCCC1)C(N)=O, also called compound No. 186) [Amidino-[D-Pro24, Cha27,36, Leu(Me)28, Lys30, Aib31]-PYY(23-36)]
1.4 | 2.9 | Morpholinocarbonyl-D[dP]RH[Cha][Cha]NL[Aib]TRQR[Cha]-NH2 (SMILES CC(C)C[C@H](NC(=O)[C@H](CC(N)=O)NC(=O)[C@H](CC1CCCCC1)NC(=O)[C@H](CC1CCCCC1)NC(=O)[C@H](Cc1c[nH]cn1)NC(=O)[C@H](CCCNC(=N)N)NC(=O)[C@H]1CCCN1C(=O)[C@H](CC(=O)O)NC(=O)N1CCOCC1)C(=O)NC(C)(C)C(=O)N[C@H](C(=O)N[C@@H](CCCNC(=N)N)C(=O)N[C@@H](CCC(N)=O)C(=O)N[C@@H](CCCNC(=N)N)C(=O)N[C@@H](CC1CCCCC1)C(N)=O)[C@@H](C)O, also called compound No. 173) [Morpholinocarbonyl-[Asp23, D-Pro24, Cha27,28,36, Aib31]-PYY(23-36)]
1.4 | 1.4 | Morpholinocarbonyl-E[dP]RH[Cha][Cha]NK[Aib]TRQR[Cha]-NH2 (SMILES C[C@@H](O)[C@H](NC(=O)C(C)(C)NC(=O)[C@H](CCCCN)NC(=O)[C@H](CC(N)=O)NC(=O)[C@H](CC1CCCCC1)NC(=O)[C@H](CC1CCCCC1)NC(=O)[C@H](Cc1c[nH]cn1)NC(=O)[C@H](CCCNC(=N)N)NC(=O)[C@H]1CCCN1C(=O)[C@H](CCC(=O)O)NC(=O)N1CCOCC1)C(=O)N[C@@H](CCCNC(=N)N)C(=O)N[C@@H](CCC(N)=O)C(=O)N[C@@H](CCCNC(=N)N)C(=O)N[C@@H](CC1CCCCC1)C(N)=O, also called compound No. 191) [Morpholinocarbonyl-[Glu23, D-Pro24, Cha27,28,36, Lys30, Aib31]-PYY(23-36)]
2.4 | 4.1 | Carbamoyl-D[dP]RH[Cha][Cha]NL[Aib]TRQR[Cha]-NH2 (SMILES CC(C)C[C@H](NC(=O)[C@H](CC(N)=O)NC(=O)[C@H](CC1CCCCC1)NC(=O)[C@H](CC1CCCCC1)NC(=O)[C@H](Cc1c[nH]cn1)NC(=O)[C@H](CCCNC(=N)N)NC(=O)[C@H]1CCCN1C(=O)[C@H](CC(=O)O)NC(N)=O)C(=O)NC(C)(C)C(=O)N[C@H](C(=O)N[C@@H](CCCNC(=N)N)C(=O)N[C@@H](CCC(N)=O)C(=O)N[C@@H](CCCNC(=N)N)C(=O)N[C@@H](CC1CCCCC1)C(N)=O)[C@@H](C)O, also called compound No. 161; ureido-[Asp23,D-Pro24,Cha27,28,36,Aib31]-PYY(23-36)) [Carbamoyl-[Asp23, D-Pro24, Cha27,28,36, Aib31]-PYY(23-36)]

Second part, the binder before the results:

Binder | GBA EC50 Ratio (vs PYY(3-36)), [35S]GTPγS (human Y2 receptor [1]) [ratio] | IC50 Ratio (vs PYY(3-36)) (human Y2 receptor [2]) [ratio]
Amidino-E[dP]RH[Cha][Cha]NK[Aib]TRQR[Cha]-NH2 (SMILES C[C@@H](O)[C@H](NC(=O)C(C)(C)NC(=O)[C@H](CCCCN)NC(=O)[C@H](CC(N)=O)NC(=O)[C@H](CC1CCCCC1)NC(=O)[C@H](CC1CCCCC1)NC(=O)[C@H](Cc1c[nH]cn1)NC(=O)[C@H](CCCNC(=N)N)NC(=O)[C@H]1CCCN1C(=O)[C@H](CCC(=O)O)NC(=N)N)C(=O)N[C@@H](CCCNC(=N)N)C(=O)N[C@@H](CCC(N)=O)C(=O)N[C@@H](CCCNC(=N)N)C(=O)N[C@@H](CC1CCCCC1)C(N)=O, also called compound No. 190) [Amidino-[Glu23, D-Pro24, Cha27,28,36, Lys30, Aib31]-PYY(23-36)] | 0.77 | 0.66
Morpholinocarbonyl-E[dP]RH[Cha][Cha]NL[Aib]TRQR[Cha]-NH2 (SMILES CC(C)C[C@H](NC(=O)[C@H](CC(N)=O)NC(=O)[C@H](CC1CCCCC1)NC(=O)[C@H](CC1CCCCC1)NC(=O)[C@H](Cc1c[nH]cn1)NC(=O)[C@H](CCCNC(=N)N)NC(=O)[C@H]1CCCN1C(=O)[C@H](CCC(=O)O)NC(=O)N1CCOCC1)C(=O)NC(C)(C)C(=O)N[C@H](C(=O)N[C@@H](CCCNC(=N)N)C(=O)N[C@@H](CCC(N)=O)C(=O)N[C@@H](CCCNC(=N)N)C(=O)N[C@@H](CC1CCCCC1)C(N)=O)[C@@H](C)O, also called compound No. 174) [Morpholinocarbonyl-[Glu23, D-Pro24, Cha27,28,36, Aib31]-PYY(23-36)] | 1 | 1.9
Morpholinocarbonyl-S[dP]RH[Cha][tBuAla]NK[Aib]TRQR[Cha]-NH2 (SMILES C[C@@H](O)[C@H](NC(=O)C(C)(C)NC(=O)[C@H](CCCCN)NC(=O)[C@H](CC(N)=O)NC(=O)[C@H](CC(C)(C)C)NC(=O)[C@H](CC1CCCCC1)NC(=O)[C@H](Cc1c[nH]cn1)NC(=O)[C@H](CCCNC(=N)N)NC(=O)[C@H]1CCCN1C(=O)[C@H](CO)NC(=O)N1CCOCC1)C(=O)N[C@@H](CCCNC(=N)N)C(=O)N[C@@H](CCC(N)=O)C(=O)N[C@@H](CCCNC(=N)N)C(=O)N[C@@H](CC1CCCCC1)C(N)=O, also called compound No. 187) [Morpholinocarbonyl-[D-Pro24, Cha27,36, Leu(Me)28, Lys30, Aib31]-PYY(23-36)] | 0.84 | 0.66
Ac-[dY]AS[dP]RH[Cha][Cha]NL[Aib]TRQR[Cha]-NH2 (SMILES CC(=O)N[C@H](Cc1ccc(O)cc1)C(=O)N[C@@H](C)C(=O)N[C@@H](CO)C(=O)N1CCC[C@@H]1C(=O)N[C@@H](CCCNC(=N)N)C(=O)N[C@@H](Cc1c[nH]cn1)C(=O)N[C@@H](CC1CCCCC1)C(=O)N[C@@H](CC1CCCCC1)C(=O)N[C@@H](CC(N)=O)C(=O)N[C@@H](CC(C)C)C(=O)NC(C)(C)C(=O)N[C@H](C(=O)N[C@@H](CCCNC(=N)N)C(=O)N[C@@H](CCC(N)=O)C(=O)N[C@@H](CCCNC(=N)N)C(=O)N[C@@H](CC1CCCCC1)C(N)=O)[C@@H](C)O, also called compound No. 121) [Ac-[D-Tyr21, D-Pro24, Cha27,28,36, Aib31]-PYY(21-36)] | 1.3 | 1.2
Ac-GLRH[Cha][Cha]NL[Aib]TRQR[Cha]-NH2 (also: Gly1-Leu2 amide bond replaced by (E)-CH=CH alkene, -CONH- bond between Gly23 and Leu24 is substituted by (E) type alkene; also called compound No. 122) [Ac-[Gly23-ψ[(E)-CH═CH]-Leu24, Cha27,28,36, Aib31]-PYY(23-36)] | 14 | 17
[4Amb]RAYINLIT[hArg]QRY-NH2 (N-terminus assumed; SMILES CC[C@H](C)[C@H](NC(=O)[C@H](Cc1ccc(O)cc1)NC(=O)[C@H](C)NC(=O)[C@H](CCCNC(=N)N)NC(=O)c1ccc(CN)cc1)C(=O)N[C@@H](CC(N)=O)C(=O)N[C@@H](CC(C)C)C(=O)N[C@H](C(=O)N[C@H](C(=O)N[C@@H](CCCCNC(=N)N)C(=O)N[C@@H](CCC(N)=O)C(=O)N[C@@H](CCCNC(=N)N)C(=O)N[C@@H](Cc1ccc(O)cc1)C(N)=O)[C@@H](C)O)[C@@H](C)CC, also called compound No. 11) [4-Aminomethylbenzoyl-[Ala26, Ile28,31, Har33]-PYY(25-36)] | 63 | 260
[4Amb][Orn]AYINLITRQRY-NH2 (N-terminus assumed; SMILES CC[C@H](C)[C@H](NC(=O)[C@H](Cc1ccc(O)cc1)NC(=O)[C@H](C)NC(=O)[C@H](CCCN)NC(=O)c1ccc(CN)cc1)C(=O)N[C@@H](CC(N)=O)C(=O)N[C@@H](CC(C)C)C(=O)N[C@H](C(=O)N[C@H](C(=O)N[C@@H](CCCNC(=N)N)C(=O)N[C@@H](CCC(N)=O)C(=O)N[C@@H](CCCNC(=N)N)C(=O)N[C@@H](Cc1ccc(O)cc1)C(N)=O)[C@@H](C)O)[C@@H](C)CC, also called compound No. 10) [4-Aminomethylbenzoyl-[Orn25, Ala26, Ile28,31]-PYY(25-36)] | 18 | 39
